{"source": "paper PMC10775985", "about": "“Malaria parasite centrins can assemble by Ca^2+-inducible condensation” (PLOS Pathogens, 2023)", "molecules": {"B1": {"name": "ScCdc31-6His (Saccharomyces cerevisiae centrin Cdc31) (natural protein, UniProt P06704 1-161, looked up)", "chain": "MSKNRSSLQSGPLNSELLEEQKQEIYEAFSLFDMNNDGFLDYHELKVAMKALGFELPKREILDLIDEYDSEGRHLMKYDDFYIVMGEKILKRDPLDEIKRAFQLFDDDHTGKISIKNLRRVAKELGETLTDEELRAMIEEFDLDGDGEINENEFIAICTDS", "notes": "Saccharomyces cerevisiae centrin Cdc31, 161 aa, 19 kDa; source: recombinant, pET-28 construct from a synthetic codon optimized gene"}, "B2": {"name": "HsCen2-6His (human centrin 2, 6His-tagged) (natural protein, UniProt P41208 1-172, looked up)", "chain": "MASNFKKANMASSSQRKRMSPKPELTEEQKQEIREAFDLFDADGTGTIDVKELKVAMRALGFEPKKEEIKKMISEIDKEGTGKMNFGDFLTVMTQKMSEKDTKEEILKAFKLFDDDETGKISFKNLKRVAKELGENLTDEELQEMIDEADRDGDGEVSEQEFLRIMKKTSLY", "notes": "human centrin 2 (HsCen2); mass spectrometry confirmed full length except for cleavage of methionine 1; source: E. coli BL21-CodonPlus (DE3), pET-28, purified (Ni-NTA); not shown: 6His, C-terminal, kept"}}, "key": {"[1]": {"target": "PfCen1-6His (P. falciparum centrin 1, 6His-tagged) (P. falciparum)", "experiment": "turbidity (light scattering); range of PfCen1-6His concentrations to find the saturation concentration; CaCl2 to 2 mM; 50 mM BisTris pH 7.1, 37°C, no salt or PEG"}, "[2]": {"target": "PfCen1-6His (P. falciparum centrin 1, 6His-tagged) (P. falciparum)", "experiment": "turbidity (light scattering); PfCen1-6His and PfCen3-6His at individually subcritical concentrations, alone with BSA to a total protein concentration of >20 μM or as a mixture; calcium, then EDTA; 50 mM BisTris pH 7.1, 37°C"}, "[3]": {"target": "PfCen3-6His (P. falciparum centrin 3, 6His-tagged) (P. falciparum)", "experiment": "turbidity (light scattering); PfCen1-6His and PfCen3-6His at individually subcritical concentrations, alone with BSA to a total protein concentration of >20 μM or as a mixture; calcium, then EDTA; 50 mM BisTris pH 7.1, 37°C"}, "[4]": {"target": "the molecule itself", "experiment": "light microscopy of droplets in purified protein solutions; self-assembly into droplets; concentrated recombinant centrin (100-200 μM), 2 mM CaCl2 added, then 10 mM EDTA; 50 mM BisTris pH 7.1, 37°C"}}, "data": [{"molecule": "PfCen1-6His (P. falciparum centrin 1, 6His-tagged) (natural protein)", "values": [{"measurement": "csat (critical saturation concentration)", "setting": "[1]", "result": "10 to 15", "unit": "µM"}, {"measurement": "csat (saturation concentration)", "setting": "[2]", "result": 10, "unit": "µM"}]}, {"molecule": "PfCen3-6His (P. falciparum centrin 3, 6His-tagged) (natural protein)", "values": [{"measurement": "csat (saturation concentration)", "setting": "[3]", "result": 10, "unit": "µM"}]}, {"molecule": "B1", "values": [{"measurement": "binding result", "setting": "[4]", "result": "binds"}]}, {"molecule": "B2", "values": [{"measurement": "binding result", "setting": "[4]", "result": "binds"}]}]}
